# Values quoted from earlier work in US20100120660A1, “HIGHLY CONCENTRATED INSULIN SOLUTIONS AND COMPOSITIONS” (priority 2007, published 2010).
substance,measurement,setting,value
porcine insulin,stability of insulin in highly concentrated solution,acidic pH,not stable due to deamidation and polymerisation
same,concentration of stable insulin solutions,"comprising zinc, neutral pH",up to 6 mM
